Assay results reported in the supplement of paper PMC10567573.

B1: TMEM106C (parent)
chain: SEQLVNFTGKAEMGGPFSYVYFFC

Variants of: B1
Assay: protein stability index of a GFP-peptide fusion (GPS, HEK-293T) (PSI 1-6); higher = more stable
Settings: c terminus: a fixed tail appended
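Also: lentivirally expressed fusions sorted by FACS into six bins by GFP to DsRed ratio, PSI derived from sequencing read proportions per bin multiplied by bin number.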

In order of rising protein stability index:
1. SEQLGNFTGKAEMGGPFSYVYFFC  1.26
2. SEQLVNFTGKAAMGGPFSYVYFFC  1.37
3. SEQLVLFTGKAEMGGPFSYVYFFC  1.38
4. SSQLVNFTGKAEMGGPFSYVYFFC  1.47
5. SEQLVPFTGKAEMGGPFSYVYFFC  1.58
6. SEQLVNFFGKAEMGGPFSYVYFFC  1.62
7. SEQLVNGTGKAEMGGPFSYVYFFC  1.68
8. SEQLVNQTGKAEMGGPFSYVYFFC  1.74
9. SEQLENFTGKAEMGGPFSYVYFFC  1.79
10. SEQLTNFTGKAEMGGPFSYVYFFC  1.81
11. SEALVNFTGKAEMGGPFSYVYFFC  1.85
12. SLQLVNFTGKAEMGGPFSYVYFFC  1.91
13. SEQQVNFTGKAEMGGPFSYVYFFC  1.93
14. SEQLVNFTGLAEMGGPFSYVYFFC  1.94
15. SEQCVNFTGKAEMGGPFSYVYFFC  1.94
16. SEQLVHFTGKAEMGGPFSYVYFFC  1.97
17. SEQLVNMTGKAEMGGPFSYVYFFC  1.98
18. SEQLVNFTGKCEMGGPFSYVYFFC  2
19. SYQLVNFTGKAEMGGPFSYVYFFC  2
20. SEQLVNFTFKAEMGGPFSYVYFFC  2.01
21. SEQLVNFTGAAEMGGPFSYVYFFC  2.02
22. SEQLVNFMGKAEMGGPFSYVYFFC  2.02
23. SEQLVNSTGKAEMGGPFSYVYFFC  2.03
24. SEQLVNFTCKAEMGGPFSYVYFFC  2.05
25. SEQPVNFTGKAEMGGPFSYVYFFC  2.07
26. SEQSVNFTGKAEMGGPFSYVYFFC  2.11
27. SEQLVNFTGKREMGGPFSYVYFFC  2.14
28. SEQLVNFTGKIEMGGPFSYVYFFC  2.16
29. SEQLVNFTGKSEMGGPFSYVYFFC  2.17
30. SEQLVVFTGKAEMGGPFSYVYFFC  2.18
31. SEQLVYFTGKAEMGGPFSYVYFFC  2.19
32. SEQLVNFTDKAEMGGPFSYVYFFC  2.19
33. SEQWVNFTGKAEMGGPFSYVYFFC  2.2
34. SEQLVNFTLKAEMGGPFSYVYFFC  2.21
35. SEQLVNFTGNAEMGGPFSYVYFFC  2.25
36. SEQLVAFTGKAEMGGPFSYVYFFC  2.28
37. SEQLVNFTPKAEMGGPFSYVYFFC  2.28
38. SKQLVNFTGKAEMGGPFSYVYFFC  2.29
39. SEQLVNFSGKAEMGGPFSYVYFFC  2.29
40. SEQLVNFEGKAEMGGPFSYVYFFC  2.29
41. SEQLVRFTGKAEMGGPFSYVYFFC  2.31
42. SEQLVNFTGPAEMGGPFSYVYFFC  2.32
43. SEQLVNDTGKAEMGGPFSYVYFFC  2.32
44. SEQLVNRTGKAEMGGPFSYVYFFC  2.32
45. SEQLVNITGKAEMGGPFSYVYFFC  2.32
46. SEQLVNFTGDAEMGGPFSYVYFFC  2.33
47. SEQLVNNTGKAEMGGPFSYVYFFC  2.37
48. SEQLVNFTGKHEMGGPFSYVYFFC  2.39
49. SEQLVQFTGKAEMGGPFSYVYFFC  2.39
50. SEQDVNFTGKAEMGGPFSYVYFFC  2.39
51. SEQLVNFKGKAEMGGPFSYVYFFC  2.4
52. SERLVNFTGKAEMGGPFSYVYFFC  2.4
53. SEQLVNFTGKGEMGGPFSYVYFFC  2.41
54. SEQLVNFWGKAEMGGPFSYVYFFC  2.44
55. SEQLSNFTGKAEMGGPFSYVYFFC  2.45
56. SEQLVNVTGKAEMGGPFSYVYFFC  2.45
57. SEQLVNFTEKAEMGGPFSYVYFFC  2.46
58. SEQLVNFTGKADMGGPFSYVYFFC  2.46
59. SEQLVNFTGKYEMGGPFSYVYFFC  2.47
60. SEQLVNFTMKAEMGGPFSYVYFFC  2.47
61. SEQLVNFTGYAEMGGPFSYVYFFC  2.5
62. SEQLVNFTGHAEMGGPFSYVYFFC  2.51
63. SEQLVNWTGKAEMGGPFSYVYFFC  2.51
64. SEQLHNFTGKAEMGGPFSYVYFFC  2.52
65. SEQLVSFTGKAEMGGPFSYVYFFC  2.52
66. SEMLVNFTGKAEMGGPFSYVYFFC  2.52
67. SEQLVNFPGKAEMGGPFSYVYFFC  2.54
68. SEQAVNFTGKAEMGGPFSYVYFFC  2.54
69. SEQLVNFTGCAEMGGPFSYVYFFC  2.55
70. SEQLVFFTGKAEMGGPFSYVYFFC  2.56
71. SEELVNFTGKAEMGGPFSYVYFFC  2.57
72. SEQLNNFTGKAEMGGPFSYVYFFC  2.58
73. SEQLVNFTGKMEMGGPFSYVYFFC  2.61
74. SEQEVNFTGKAEMGGPFSYVYFFC  2.62
75. SEQLVNFNGKAEMGGPFSYVYFFC  2.63
76. SEQLVNFTGKDEMGGPFSYVYFFC  2.64
77. STQLVNFTGKAEMGGPFSYVYFFC  2.64
78. SQQLVNFTGKAEMGGPFSYVYFFC  2.65
79. SEQLVNFRGKAEMGGPFSYVYFFC  2.65
80. SEQLVNFTGKNEMGGPFSYVYFFC  2.66
81. SEQLCNFTGKAEMGGPFSYVYFFC  2.67
82. SEQLVNFTGKACMGGPFSYVYFFC  2.67
83. SEQLVNFTGKAFMGGPFSYVYFFC  2.67
84. SVQLVNFTGKAEMGGPFSYVYFFC  2.69
85. SEQLVNKTGKAEMGGPFSYVYFFC  2.69
86. SEQLVIFTGKAEMGGPFSYVYFFC  2.71
87. SEQLVNFTQKAEMGGPFSYVYFFC  2.71
88. SEQLVNFTGMAEMGGPFSYVYFFC  2.72
89. SESLVNFTGKAEMGGPFSYVYFFC  2.73
90. SEQIVNFTGKAEMGGPFSYVYFFC  2.74
91. SEQLVNFTGKWEMGGPFSYVYFFC  2.75
92. SEQFVNFTGKAEMGGPFSYVYFFC  2.75
93. SEQLFNFTGKAEMGGPFSYVYFFC  2.76
94. SEQLVNFGGKAEMGGPFSYVYFFC  2.76
95. SEFLVNFTGKAEMGGPFSYVYFFC  2.76
96. SEQLVNHTGKAEMGGPFSYVYFFC  2.79
97. SETLVNFTGKAEMGGPFSYVYFFC  2.79
98. SEKLVNFTGKAEMGGPFSYVYFFC  2.79
99. SEQLRNFTGKAEMGGPFSYVYFFC  2.8
100. SHQLVNFTGKAEMGGPFSYVYFFC  2.8
101. SEQLVNFTIKAEMGGPFSYVYFFC  2.8
102. SEQLVKFTGKAEMGGPFSYVYFFC  2.82
103. SEQLMNFTGKAEMGGPFSYVYFFC  2.83
104. SRQLVNFTGKAEMGGPFSYVYFFC  2.85
105. SGQLVNFTGKAEMGGPFSYVYFFC  2.88
106. SEQLVDFTGKAEMGGPFSYVYFFC  2.88
107. SEQLQNFTGKAEMGGPFSYVYFFC  2.89
108. SEQLVNFTKKAEMGGPFSYVYFFC  2.89
109. SEQLVNFTGFAEMGGPFSYVYFFC  2.92
110. SEQLVNFTGKLEMGGPFSYVYFFC  2.92
111. SEQLVNFVGKAEMGGPFSYVYFFC  2.92
112. SEQLVNFTGEAEMGGPFSYVYFFC  2.94
113. SEILVNFTGKAEMGGPFSYVYFFC  2.94
114. SEQLANFTGKAEMGGPFSYVYFFC  2.95
115. SWQLVNFTGKAEMGGPFSYVYFFC  2.95
116. SEQLVNFTWKAEMGGPFSYVYFFC  2.95
117. SEQLVWFTGKAEMGGPFSYVYFFC  2.96
118. SEQLVNFTGKAGMGGPFSYVYFFC  2.96
119. SEQLVTFTGKAEMGGPFSYVYFFC  2.97
120. SEQLVNFTSKAEMGGPFSYVYFFC  2.97
121. SEQLVNFTGKAIMGGPFSYVYFFC  2.98
122. SECLVNFTGKAEMGGPFSYVYFFC  2.98
123. SEQLVNFTGRAEMGGPFSYVYFFC  2.99
124. SEYLVNFTGKAEMGGPFSYVYFFC  2.99
125. SIQLVNFTGKAEMGGPFSYVYFFC  3
126. SEQLVNFTRKAEMGGPFSYVYFFC  3.01
127. SEQLVNFTGVAEMGGPFSYVYFFC  3.02
128. SEWLVNFTGKAEMGGPFSYVYFFC  3.02
129. SEQLLNFTGKAEMGGPFSYVYFFC  3.05
130. SEQLVNFTYKAEMGGPFSYVYFFC  3.05
131. SEQLKNFTGKAEMGGPFSYVYFFC  3.06
132. SEQLVNFAGKAEMGGPFSYVYFFC  3.06
133. SEQLVNFTGQAEMGGPFSYVYFFC  3.07
134. SEQLVNFTHKAEMGGPFSYVYFFC  3.07
135. SEQLVNFTGKVEMGGPFSYVYFFC  3.08
136. SEQLVNFCGKAEMGGPFSYVYFFC  3.08
137. SEQLVNFTVKAEMGGPFSYVYFFC  3.09
138. SEQLVGFTGKAEMGGPFSYVYFFC  3.12
139. SEQLVNFIGKAEMGGPFSYVYFFC  3.12
140. SEQNVNFTGKAEMGGPFSYVYFFC  3.12
141. SEQLVNFTGIAEMGGPFSYVYFFC  3.15
142. SEQLVNTTGKAEMGGPFSYVYFFC  3.16
143. SEQLVNPTGKAEMGGPFSYVYFFC  3.16
144. SEVLVNFTGKAEMGGPFSYVYFFC  3.16
145. SEQLVNFTGWAEMGGPFSYVYFFC  3.18
146. SEQLVNFTNKAEMGGPFSYVYFFC  3.19
147. SEQLVNFTAKAEMGGPFSYVYFFC  3.2
148. SEHLVNFTGKAEMGGPFSYVYFFC  3.21
149. SENLVNFTGKAEMGGPFSYVYFFC  3.22
150. SEQLVCFTGKAEMGGPFSYVYFFC  3.24
151. SEQLVNFTGKQEMGGPFSYVYFFC  3.25
152. SEQLVNFTTKAEMGGPFSYVYFFC  3.27
153. SNQLVNFTGKAEMGGPFSYVYFFC  3.28
154. SEQLVEFTGKAEMGGPFSYVYFFC  3.28
155. SFQLVNFTGKAEMGGPFSYVYFFC  3.3
156. SEQLVNFHGKAEMGGPFSYVYFFC  3.31
157. SEQYVNFTGKAEMGGPFSYVYFFC  3.31
158. SEQLVNFTGKEEMGGPFSYVYFFC  3.33
159. SEQLVNLTGKAEMGGPFSYVYFFC  3.36
160. SEQLVNYTGKAEMGGPFSYVYFFC  3.39
161. SEDLVNFTGKAEMGGPFSYVYFFC  3.39
162. SEQLVNCTGKAEMGGPFSYVYFFC  3.4
163. SEQTVNFTGKAEMGGPFSYVYFFC  3.41
164. SEQLINFTGKAEMGGPFSYVYFFC  3.42
165. SEQLVMFTGKAEMGGPFSYVYFFC  3.44
166. SEGLVNFTGKAEMGGPFSYVYFFC  3.44
167. SEQLVNFTGTAEMGGPFSYVYFFC  3.48
168. SMQLVNFTGKAEMGGPFSYVYFFC  3.48
169. SEQKVNFTGKAEMGGPFSYVYFFC  3.49
170. SEQLVNFTGKTEMGGPFSYVYFFC  3.55
171. SEQLVNFTGSAEMGGPFSYVYFFC  3.56
172. SELLVNFTGKAEMGGPFSYVYFFC  3.56
173. SEQLYNFTGKAEMGGPFSYVYFFC  3.6
174. SEQLVNFQGKAEMGGPFSYVYFFC  3.6
175. SEQLVNFTGKFEMGGPFSYVYFFC  3.61
176. SEQLVNFTGKAHMGGPFSYVYFFC  3.66
177. SEQLVNFTGKKEMGGPFSYVYFFC  3.7
178. SEQLVNFYGKAEMGGPFSYVYFFC  3.78
179. SPQLVNFTGKAEMGGPFSYVYFFC  3.82
180. SEQLDNFTGKAEMGGPFSYVYFFC  3.94
181. SEQLVNFTGKAKMGGPFSYVYFFC  4.11
182. SEQLVNFLGKAEMGGPFSYVYFFC  4.14
183. SEQLPNFTGKAEMGGPFSYVYFFC  4.22
184. SEQLWNFTGKAEMGGPFSYVYFFC  4.3
185. SEQLVNFTGKPEMGGPFSYVYFFC  4.32
186. SEQHVNFTGKAEMGGPFSYVYFFC  4.32
187. SEQLVNFTGGAEMGGPFSYVYFFC  4.37
188. SEQLVNETGKAEMGGPFSYVYFFC  4.73
